# Reference: patent US20210309732A1 (ELIXIRON IMMUNOTHERAPEUTICS HONG KONG, published 2021)
# Molecular target: T1, recombinant human GM-CSF (human, UniProt P04141 18-144)
# T1 construct: also called rhGM-CSF; CSF2
# Experiment: ELISA on coated rhGM-CSF, UBA relative to 1D2
# Text: Some of the residues in the CDRs are essential for epitope binding affinity and/or specificity. A number of computational methods were developed to detect these functional residues, generally known as ‘specificity-determining resides’ (SDRs). […] Based on the analysis, 7 amino acid residues in VH and 3 amino acid residues in VL were selected as the SDRs. The residues are labeled X₁ to X₁₀ for the ease of reference. The SDRs on VH are: Heavy chain D31 (HD31) (X₁), HK32 (X₂), HK54(X₃), HR100 (X₄), HY102 (X₅), HY103 (X₆) and HQ105 (X₇). The SDRs on VL are Light chain V32 (LV32) (X₈), LP94 (X₉) and LV95 (X₁₀). The SDRs were subsequently mutated by site-directed mutagenesis to other amino acids to generate mutant VH or VL clones. HEK293 cells were co-transfected with a vector encoding a mutant VH paired with a vector encoding a wild type VL or a vector encoding a wild type VH paired with a vector encoding a mutant VL. The antibody clones were harvested from the culture medium. The binding affinity of each antibody clone to human GM-CSF was tested by ELISA. The ELISA was done according to the following procedures. ELISA plate was coated with 50 μl of rhGM-CSF at 1 μg/mL. The plate was washed with 200 μl PBST for three times, followed by blocking with 1% BSA for 1 hour at room temperature. The antibody clones to be tested were diluted at 1:12000. 100 μl of the diluted antibodies were added to the cell at 100 μl/well. The plate was incubated at room temperature for 1 hour. The plate was then washed and incubated with 1:5000 diluted goat-anti-human secondary antibody conjugated with HRP at room temperature for one hour. The ELISA assay was developed with 100 μl developing buffer containing H₂O₂-Amplx Red per well in the dark for 5 min and the fluorescence intensity was read at Ex.530/Em.590 nm, with cutoff at 570 nm. The Unit Binding Activity (UBA) of each sample was calculated as the fluorescence signal/antibody clone dilution factor.
# T1 sequence (P04141 18-144 limits assumed): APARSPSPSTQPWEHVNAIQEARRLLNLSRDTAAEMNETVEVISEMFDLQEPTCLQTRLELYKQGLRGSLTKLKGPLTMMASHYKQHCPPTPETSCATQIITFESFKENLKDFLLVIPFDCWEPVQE
row,binding affinity % of 1D2 [%],Binder
1,74,"1D2 SDR mutant HK54V (antibody, IgG1, V domains shown, also called X3 V) VH: QVQLVQSGAEVKKPGASVKVSCEASGYTFTDKYLHWVRQAPGQGLEWMAWINPVSGGTFYAQNFKGRVTVTRDTSINTAYLELTSLRLDDTSTYYCARGRDYYDQGAADLWGQGTMVTVSS VL: DIQLTQSPSSLSASVGDRVTITCRASQGINSVLAWYQQKPGKAPKLLLYAASKLESGVPSRFSGSGSGTDYTLTISSLQPEDFGTYYCQQYYSPVRTFGQGTKVEIKR"
2,94,"1D2 SDR mutant HR100M (antibody, IgG1, V domains shown, also called X4 M) VH: QVQLVQSGAEVKKPGASVKVSCEASGYTFTDKYLHWVRQAPGQGLEWMAWINPKSGGTFYAQNFKGRVTVTRDTSINTAYLELTSLRLDDTSTYYCARGMDYYDQGAADLWGQGTMVTVSS VL: DIQLTQSPSSLSASVGDRVTITCRASQGINSVLAWYQQKPGKAPKLLLYAASKLESGVPSRFSGSGSGTDYTLTISSLQPEDFGTYYCQQYYSPVRTFGQGTKVEIKR"
3,173,"1D2 SDR mutant HQ105E (antibody, IgG1, V domains shown, also called X7 E) VH: QVQLVQSGAEVKKPGASVKVSCEASGYTFTDKYLHWVRQAPGQGLEWMAWINPKSGGTFYAQNFKGRVTVTRDTSINTAYLELTSLRLDDTSTYYCARGRDYYDEGAADLWGQGTMVTVSS VL: DIQLTQSPSSLSASVGDRVTITCRASQGINSVLAWYQQKPGKAPKLLLYAASKLESGVPSRFSGSGSGTDYTLTISSLQPEDFGTYYCQQYYSPVRTFGQGTKVEIKR"
4,88,"1D2 SDR mutant HK54W (antibody, IgG1, V domains shown, also called X3 W) VH: QVQLVQSGAEVKKPGASVKVSCEASGYTFTDKYLHWVRQAPGQGLEWMAWINPWSGGTFYAQNFKGRVTVTRDTSINTAYLELTSLRLDDTSTYYCARGRDYYDQGAADLWGQGTMVTVSS VL: DIQLTQSPSSLSASVGDRVTITCRASQGINSVLAWYQQKPGKAPKLLLYAASKLESGVPSRFSGSGSGTDYTLTISSLQPEDFGTYYCQQYYSPVRTFGQGTKVEIKR"
5,134,"1D2 SDR mutant HQ105S (antibody, IgG1, V domains shown, also called X7 S) VH: QVQLVQSGAEVKKPGASVKVSCEASGYTFTDKYLHWVRQAPGQGLEWMAWINPKSGGTFYAQNFKGRVTVTRDTSINTAYLELTSLRLDDTSTYYCARGRDYYDSGAADLWGQGTMVTVSS VL: DIQLTQSPSSLSASVGDRVTITCRASQGINSVLAWYQQKPGKAPKLLLYAASKLESGVPSRFSGSGSGTDYTLTISSLQPEDFGTYYCQQYYSPVRTFGQGTKVEIKR"
6,89,"1D2 SDR mutant HR100C (antibody, IgG1, V domains shown, also called X4 C) VH: QVQLVQSGAEVKKPGASVKVSCEASGYTFTDKYLHWVRQAPGQGLEWMAWINPKSGGTFYAQNFKGRVTVTRDTSINTAYLELTSLRLDDTSTYYCARGCDYYDQGAADLWGQGTMVTVSS VL: DIQLTQSPSSLSASVGDRVTITCRASQGINSVLAWYQQKPGKAPKLLLYAASKLESGVPSRFSGSGSGTDYTLTISSLQPEDFGTYYCQQYYSPVRTFGQGTKVEIKR"
7,63,"1D2 SDR mutant HQ105L (antibody, IgG1, V domains shown, also called X7 L) VH: QVQLVQSGAEVKKPGASVKVSCEASGYTFTDKYLHWVRQAPGQGLEWMAWINPKSGGTFYAQNFKGRVTVTRDTSINTAYLELTSLRLDDTSTYYCARGRDYYDLGAADLWGQGTMVTVSS VL: DIQLTQSPSSLSASVGDRVTITCRASQGINSVLAWYQQKPGKAPKLLLYAASKLESGVPSRFSGSGSGTDYTLTISSLQPEDFGTYYCQQYYSPVRTFGQGTKVEIKR"
8,68,"1D2 SDR mutant HQ105W (antibody, IgG1, V domains shown, also called X7 W) VH: QVQLVQSGAEVKKPGASVKVSCEASGYTFTDKYLHWVRQAPGQGLEWMAWINPKSGGTFYAQNFKGRVTVTRDTSINTAYLELTSLRLDDTSTYYCARGRDYYDWGAADLWGQGTMVTVSS VL: DIQLTQSPSSLSASVGDRVTITCRASQGINSVLAWYQQKPGKAPKLLLYAASKLESGVPSRFSGSGSGTDYTLTISSLQPEDFGTYYCQQYYSPVRTFGQGTKVEIKR"
9,105,"1D2 SDR mutant HQ105G (antibody, IgG1, V domains shown, also called X7 G) VH: QVQLVQSGAEVKKPGASVKVSCEASGYTFTDKYLHWVRQAPGQGLEWMAWINPKSGGTFYAQNFKGRVTVTRDTSINTAYLELTSLRLDDTSTYYCARGRDYYDGGAADLWGQGTMVTVSS VL: DIQLTQSPSSLSASVGDRVTITCRASQGINSVLAWYQQKPGKAPKLLLYAASKLESGVPSRFSGSGSGTDYTLTISSLQPEDFGTYYCQQYYSPVRTFGQGTKVEIKR"
10,76,"1D2 SDR mutant HR100A (antibody, IgG1, V domains shown, also called X4 A) VH: QVQLVQSGAEVKKPGASVKVSCEASGYTFTDKYLHWVRQAPGQGLEWMAWINPKSGGTFYAQNFKGRVTVTRDTSINTAYLELTSLRLDDTSTYYCARGADYYDQGAADLWGQGTMVTVSS VL: DIQLTQSPSSLSASVGDRVTITCRASQGINSVLAWYQQKPGKAPKLLLYAASKLESGVPSRFSGSGSGTDYTLTISSLQPEDFGTYYCQQYYSPVRTFGQGTKVEIKR"
11,80,"1D2 SDR mutant HR100I (antibody, IgG1, V domains shown, also called X4 I) VH: QVQLVQSGAEVKKPGASVKVSCEASGYTFTDKYLHWVRQAPGQGLEWMAWINPKSGGTFYAQNFKGRVTVTRDTSINTAYLELTSLRLDDTSTYYCARGIDYYDQGAADLWGQGTMVTVSS VL: DIQLTQSPSSLSASVGDRVTITCRASQGINSVLAWYQQKPGKAPKLLLYAASKLESGVPSRFSGSGSGTDYTLTISSLQPEDFGTYYCQQYYSPVRTFGQGTKVEIKR"
12,133,"1D2 SDR mutant HQ105T (antibody, IgG1, V domains shown, also called X7 T) VH: QVQLVQSGAEVKKPGASVKVSCEASGYTFTDKYLHWVRQAPGQGLEWMAWINPKSGGTFYAQNFKGRVTVTRDTSINTAYLELTSLRLDDTSTYYCARGRDYYDTGAADLWGQGTMVTVSS VL: DIQLTQSPSSLSASVGDRVTITCRASQGINSVLAWYQQKPGKAPKLLLYAASKLESGVPSRFSGSGSGTDYTLTISSLQPEDFGTYYCQQYYSPVRTFGQGTKVEIKR"
13,69,"1D2 SDR mutant HR100L (antibody, IgG1, V domains shown, also called X4 L) VH: QVQLVQSGAEVKKPGASVKVSCEASGYTFTDKYLHWVRQAPGQGLEWMAWINPKSGGTFYAQNFKGRVTVTRDTSINTAYLELTSLRLDDTSTYYCARGLDYYDQGAADLWGQGTMVTVSS VL: DIQLTQSPSSLSASVGDRVTITCRASQGINSVLAWYQQKPGKAPKLLLYAASKLESGVPSRFSGSGSGTDYTLTISSLQPEDFGTYYCQQYYSPVRTFGQGTKVEIKR"
14,92,"1D2 SDR mutant HR100E (antibody, IgG1, V domains shown, also called X4 E) VH: QVQLVQSGAEVKKPGASVKVSCEASGYTFTDKYLHWVRQAPGQGLEWMAWINPKSGGTFYAQNFKGRVTVTRDTSINTAYLELTSLRLDDTSTYYCARGEDYYDQGAADLWGQGTMVTVSS VL: DIQLTQSPSSLSASVGDRVTITCRASQGINSVLAWYQQKPGKAPKLLLYAASKLESGVPSRFSGSGSGTDYTLTISSLQPEDFGTYYCQQYYSPVRTFGQGTKVEIKR"
15,101,"1D2 SDR mutant HR100P (antibody, IgG1, V domains shown, also called X4 P) VH: QVQLVQSGAEVKKPGASVKVSCEASGYTFTDKYLHWVRQAPGQGLEWMAWINPKSGGTFYAQNFKGRVTVTRDTSINTAYLELTSLRLDDTSTYYCARGPDYYDQGAADLWGQGTMVTVSS VL: DIQLTQSPSSLSASVGDRVTITCRASQGINSVLAWYQQKPGKAPKLLLYAASKLESGVPSRFSGSGSGTDYTLTISSLQPEDFGTYYCQQYYSPVRTFGQGTKVEIKR"
16,125,"1D2 SDR mutant HR100G (antibody, IgG1, V domains shown, also called X4 G) VH: QVQLVQSGAEVKKPGASVKVSCEASGYTFTDKYLHWVRQAPGQGLEWMAWINPKSGGTFYAQNFKGRVTVTRDTSINTAYLELTSLRLDDTSTYYCARGGDYYDQGAADLWGQGTMVTVSS VL: DIQLTQSPSSLSASVGDRVTITCRASQGINSVLAWYQQKPGKAPKLLLYAASKLESGVPSRFSGSGSGTDYTLTISSLQPEDFGTYYCQQYYSPVRTFGQGTKVEIKR"
17,148,"1D2 SDR mutant HQ105M (antibody, IgG1, V domains shown, also called X7 M) VH: QVQLVQSGAEVKKPGASVKVSCEASGYTFTDKYLHWVRQAPGQGLEWMAWINPKSGGTFYAQNFKGRVTVTRDTSINTAYLELTSLRLDDTSTYYCARGRDYYDMGAADLWGQGTMVTVSS VL: DIQLTQSPSSLSASVGDRVTITCRASQGINSVLAWYQQKPGKAPKLLLYAASKLESGVPSRFSGSGSGTDYTLTISSLQPEDFGTYYCQQYYSPVRTFGQGTKVEIKR"
18,155,"1D2 SDR mutant HQ105V (antibody, IgG1, V domains shown, also called X7 V) VH: QVQLVQSGAEVKKPGASVKVSCEASGYTFTDKYLHWVRQAPGQGLEWMAWINPKSGGTFYAQNFKGRVTVTRDTSINTAYLELTSLRLDDTSTYYCARGRDYYDVGAADLWGQGTMVTVSS VL: DIQLTQSPSSLSASVGDRVTITCRASQGINSVLAWYQQKPGKAPKLLLYAASKLESGVPSRFSGSGSGTDYTLTISSLQPEDFGTYYCQQYYSPVRTFGQGTKVEIKR"
